According to patent US20250049896A1 (Regeneron, published 2025):
Substitutions are numbered along the chain they refer to.

B1: 12835B (antibody, human IgG1, kappa, V domains shown)
VH: EVQLVESGGGLIQPGGSLRLSCEASGFTFRNYEMNWVRQAPGKGLEWVSYISSSGNMKDYAESVKGRFTISRDNVKNSLQLQMNSLRVEDTAVYYCARDEFPYGMDVWGQGTTVTVSS
VL: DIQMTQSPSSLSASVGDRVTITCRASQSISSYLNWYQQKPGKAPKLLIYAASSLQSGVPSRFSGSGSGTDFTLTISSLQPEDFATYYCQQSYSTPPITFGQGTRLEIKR
notes: Tested as bivalent human IgG1 from CHO primary supernatant; also called H1H12835B; REGN17509
B2: 12843B (antibody, human IgG1, kappa, V domains shown)
VH: EVQLVESGGGLVQPGGSLRLSCAASGFTFNIFEMNWVRQAPGKGLEWISYISSRGTTTYYADSVRGRFTISRDNAKNSLYLQMNSLRAEDTAVYYCARDYEATIPFDFWGQGTLVTVSS
VL: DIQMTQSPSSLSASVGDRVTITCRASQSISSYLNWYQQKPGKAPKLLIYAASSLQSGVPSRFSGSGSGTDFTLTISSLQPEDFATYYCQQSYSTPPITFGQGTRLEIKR
notes: Tested as bivalent human IgG1 from CHO primary supernatant; also called H1H12843B; REGN17512
B3: 12844B (antibody, human IgG1, kappa, V domains shown)
VH: EVQLVESGGSVVRPGGSLRLSCEASGFTFDDYGMSWVRQDPGKGLEWVSGINWNGDRTNYADSVKGRFIISRDNAKNSVYLQMNSLRAEDSALYHCARDQGLGVAATLDYWGQGTLVTVSS
VL: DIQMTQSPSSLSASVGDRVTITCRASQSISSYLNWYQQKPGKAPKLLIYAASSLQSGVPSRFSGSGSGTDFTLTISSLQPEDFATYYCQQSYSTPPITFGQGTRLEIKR
notes: Tested as bivalent human IgG1 from CHO primary supernatant
B4: 12847B (antibody, human IgG1, kappa, V domains shown)
VH: EVQLVESGGGLVQPGRSLRLSCAASGFTFDDYAMNWVRQAPGKGLEWVSGISWSSGSMDYADSVKGRFTISRDNAKNSLYLQMNSLRTEDTALYYCAKAREVGDYYGMDVWGQGTTVTVSS
VL: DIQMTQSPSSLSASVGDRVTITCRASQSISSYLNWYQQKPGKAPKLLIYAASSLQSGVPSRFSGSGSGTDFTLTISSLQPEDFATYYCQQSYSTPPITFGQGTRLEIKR
notes: Tested as bivalent human IgG1 from CHO primary supernatant; also called H1H12847B; REGN17514
B5: 12848B (antibody, human IgG1, kappa, V domains shown)
VH: EVQLVESGGGLVQPGRSLTLSCAASGFTFDNFGMHWVRQGPGKGLEWVSGLTWNSGVIGYADSVKGRFTISRDNAKNSLYLQMNSLRPEDTALYYCAKDIRNYGPFDYWGQGTLVTVSS
VL: not shown
notes: Tested as bivalent human IgG1 from CHO primary supernatant; also called H1H12848B; REGN17515
B6: 12850B (antibody, human IgG1, kappa, V domains shown)
VH: QVQLVQSGAEVKKPGSSVKVSCKASGGTFNTYAITWVRQAPGQGLEWMGGIIPISGIAEYAQKFQGRVTITTDDSSTTAYMELNSLRSEDTAVYYCASWNYALYYFYGMDVWGRGTTVTVSS
VL: not shown
notes: Tested as bivalent human IgG1 from CHO primary supernatant; also called H1H12850B; REGN17516
B7: 12795B Fab (Fab, V domains shown)
VH: EVQLVESGGGLVQPGGSLRLSCATSGFTFTSYDMKWVRQAPGLGLEWVSAISGSGGNTYYADSVKGRFTISRDNSRNTLYLQMNSLRAEDTAVYYCTRSHDFGAFDYFDYWGQGTLVTVSS
VL: DIQMTQSPSSLSASVGDRVTITCRASQGIRDHFGWYQQKPGKAPKRLIYAASSLHSGVPSRFSGSGSGTEFTLTISSLQPEDFATYYCLQYDTYPLTFGGGTKVEIKR
notes: CHO supernatant
B8: 12795B scFv (VK-VH) (scFv)
scFv: DIQMTQSPSSLSASVGDRVTITCRASQGIRDHFGWYQQKPGKAPKRLIYAASSLHSGVPSRFSGSGSGTEFTLTISSLQPEDFATYYCLQYDTYPLTFGGGTKVEIKGGGGSGGGGSGGGGSEVQLVESGGGLVQPGGSLRLSCATSGFTFTSYDMKWVRQAPGLGLEWVSAISGSGGNTYYADSVKGRFTISRDNSRNTLYLQMNSLRAEDTAVYYCTRSHDFGAFDYFDYWGQGTLVTVSS
notes: CHO supernatant; Vk-3xG4S-Vh
B9: 12795B scFv (VH-VK) (scFv)
chain: EVQLVESGGGLVQPGGSLRLSCATSGFTFTSYDMKWVRQAPGLGLEWVSAISGSGGNTYYADSVKGRFTISRDNSRNTLYLQMNSLRAEDTAVYYCTRSHDFGAFDYFDYWGQGTLVTVSSDIQMTQSPSSLSASVGDRVTITCRASQGIRDHFGWYQQKPGKAPKRLIYAASSLHSGVPSRFSGSGSGTEFTLTISSLQPEDFATYYCLQYDTYPLTFGGGTKVEIK
B10: 12798B Fab (Fab, V domains shown)
VH: EVQLVESGGDLVQPGRSLRLSCAASGFTFDDYAMHWVRQAPGKGLEWVSGISWNSATRVYADSVKGRFTISRDNAKNFLYLQMNSLRSEDTALYHCAKDMDISLGYYGLDVWGQGTTVTVSS
VL: not shown
notes: CHO supernatant
B11: 12798B scFv (VK-VH) (scFv)
scFv: EIVMTQSPATLSVSPGERATLSCRASQTVSSNLAWYQQKPGQAPRLLIYGSSSRATGIPARFSGSGSGTEFTLTISSLQSEDFAVYYCQQYNNWPPYTFGQGTKLEIKGGGGSGGGGSGGGGSEVQLVESGGDLVQPGRSLRLSCAASGFTFDDYAMHWVRQAPGKGLEWVSGISWNSATRVYADSVKGRFTISRDNAKNFLYLQMNSLRSEDTALYHCAKDMDISLGYYGLDVWGQGTTVTVSS
notes: CHO supernatant; Vk-3xG4S-Vh
B12: 12798B scFv (VH-VK) (scFv)
scFv: EVQLVESGGDLVQPGRSLRLSCAASGFTFDDYAMHWVRQAPGKGLEWVSGISWNSATRVYADSVKGRFTISRDNAKNFLYLQMNSLRSEDTALYHCAKDMDISLGYYGLDVWGQGTTVTVSSGGGGSGGGGSGGGGSEIVMTQSPATLSVSPGERATLSCRASQTVSSNLAWYQQKPGQAPRLLIYGSSSRATGIPARFSGSGSGTEFTLTISSLQSEDFAVYYCQQYNNWPPYTFGQGTKLEIK
notes: CHO supernatant
B13: 12799B Fab (Fab, V domains shown)
VH: QITLKESGPTLVKPTQTLTLTCTFSGFSLSTSGVGVVWIRQPPGKALEWLALIYWNDHKRYSPSLGSRLTITKDTSKNQVVLTMTNMDPVDTATYYCAHYSGSYSYYYYGLDVWGQGTTVTVSS
VL: DIQMTQSPSSVSASVGDRVTITCRASQGIASWLAWYQQKPGKAPELLIYAASSLQGGVPSRFSGSGSGTDFTLTISSLQPEDFAIYYCQQANYFPWTFGQGTKVEIKR
notes: CHO supernatant
B14: 12799B scFv (VK-VH) (scFv)
scFv: DIQMTQSPSSVSASVGDRVTITCRASQGIASWLAWYQQKPGKAPELLIYAASSLQGGVPSRFSGSGSGTDFTLTISSLQPEDFAIYYCQQANYFPWTFGQGTKVEIKGGGGSGGGGSGGGGSQITLKESGPTLVKPTQTLTLTCTFSGFSLSTSGVGVVWIRQPPGKALEWLALIYWNDHKRYSPSLGSRLTITKDTSKNQVVLTMTNMDPVDTATYYCAHYSGSYSYYYYGLDVWGQGTTVTVSS
notes: CHO supernatant; Vk-3xG4S-Vh
B15: 12801B Fab (Fab, V domains shown)
VH: EVQLLESGGALVQPGGSLRLSCAASGFTFTSYAMHWVRQAPGKGLEWVSSIRGSGGGTYSADSVKGRFTISRDNSRDTLYLQMNSVRAEDTAVYYCARSHDYGAFDFFDYWGQGTLVTVSS
VL: B7 VL with D31T, H32D, F33L, H55Q, Q79R, Y86F, D92N, T93S
notes: CHO supernatant
B16: 12801B scFv (VK-VH) (scFv)
scFv: DIQMTQSPSSLSASVGDRVTITCRASQGIRTDLGWYQQKPGKAPKRLIYAASSLQSGVPSRFSGSGSGTEFTLTISSLRPEDFATFYCLQYNSYPLTFGGGTKVEIKGGGGSGGGGSGGGGSEVQLLESGGALVQPGGSLRLSCAASGFTFTSYAMHWVRQAPGKGLEWVSSIRGSGGGTYSADSVKGRFTISRDNSRDTLYLQMNSVRAEDTAVYYCARSHDYGAFDFFDYWGQGTLVTVSS
notes: CHO supernatant; Vk-3xG4S-Vh
B17: 12801B scFv (VH-VK) (scFv)
chain: EVQLLESGGALVQPGGSLRLSCAASGFTFTSYAMHWVRQAPGKGLEWVSSIRGSGGGTYSADSVKGRFTISRDNSRDTLYLQMNSVRAEDTAVYYCARSHDYGAFDFFDYWGQGTLVTVSSDIQMTQSPSSLSASVGDRVTITCRASQGIRTDLGWYQQKPGKAPKRLIYAASSLQSGVPSRFSGSGSGTEFTLTISSLRPEDFATFYCLQYNSYPLTFGGGTKVEIK

Assays:
[1] = biological target: T1, hmm.hTfRC (REGN2431), human transferrin receptor extracellular domain with hexahistidine-myc-myc tag (human, UniProt P02786 89-760); assay: SPR (Biacore), mAb captured on anti-human Fc, 100 nM hTFR-mmh, 25 C
T1 construct: Monomeric recombinant protein, 79210 g/mol; also called hTFR-mmh; His-myc-myc-hTFRC ecto
T1 sequence (P02786 other isoform, or with tags, fused parts or gaps): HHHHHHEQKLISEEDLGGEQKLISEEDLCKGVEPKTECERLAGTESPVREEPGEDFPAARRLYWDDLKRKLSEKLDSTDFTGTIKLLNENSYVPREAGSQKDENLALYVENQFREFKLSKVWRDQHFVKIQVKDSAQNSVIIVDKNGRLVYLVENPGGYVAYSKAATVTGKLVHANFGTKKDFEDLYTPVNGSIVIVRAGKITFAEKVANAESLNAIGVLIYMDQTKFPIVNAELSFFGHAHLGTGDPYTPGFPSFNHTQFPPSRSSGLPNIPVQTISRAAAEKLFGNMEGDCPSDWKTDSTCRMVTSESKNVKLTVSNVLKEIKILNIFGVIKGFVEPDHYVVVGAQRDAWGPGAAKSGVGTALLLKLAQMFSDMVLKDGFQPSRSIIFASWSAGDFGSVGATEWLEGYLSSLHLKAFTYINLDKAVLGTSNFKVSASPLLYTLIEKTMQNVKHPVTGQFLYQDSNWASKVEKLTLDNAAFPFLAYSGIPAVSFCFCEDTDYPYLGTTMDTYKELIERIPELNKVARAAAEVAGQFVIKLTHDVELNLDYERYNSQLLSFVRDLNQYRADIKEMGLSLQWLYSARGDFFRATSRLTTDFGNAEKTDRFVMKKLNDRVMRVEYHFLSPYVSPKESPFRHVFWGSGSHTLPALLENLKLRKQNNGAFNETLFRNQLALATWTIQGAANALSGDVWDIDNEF
Procedure: (§1) Biacore binding kinetics assays were conducted for the interaction of 32 anti-human TfR IgG1 monoclonal antibodies from CHO supernatants with TfR reagents at 25° C.
(§2) Equilibrium dissociation constants (KD) for the interaction of anti-TfR monoclonal antibodies with human and fascicularis monkey TfR ecto domain recombinant proteins were determined using a real-time surface plasmon resonance (SPR) based Biacore S200 biosensor. All binding studies were performed in 10 mM HEPES, 150 mM NaCl, 3 mM EDTA, and 0.05% v/v surfactant Tween-20, pH 7.4 (HBS-EP) running buffer at […]. The Biacore CM5 sensor surface was first derivatized by amine coupling with a monoclonal mouse anti-human Fc antibody (REGN2567) followed by a step to capture anti-TfR monoclonal antibodies in CHO conditioned media. […] The dissociation of TfR bound to anti-TfR monoclonal antibodies was monitored for 3 minutes in HBS-EP running buffer. At the end of each cycle, the anti-TfR monoclonal antibodies capture surface was regenerated using a 12-sec injection of 20 mM H₃PO₄. The association rate (ka) and dissociation rate (kd) were determined by fitting the real-time binding sensorgrams to a 1:1 binding model with mass transport limitation using Scrubber 2.0 c software. The dissociation equilibrium constant (KD) and dissociative half-life (t½) were calculated from the kinetic rate constants as: […]

[2] = biological target: T2, mf TFRC ecto-mmh (REGN2054), monomeric monkey (cyno) Tfrc ectodomain with C-terminal myc-myc-hexahistidine tag (monkey (cyno), Macaca fascicularis, UniProt H9EXL1 89-760); assay: SPR (Biacore), mAb captured on anti-human Fc, 100 nM mfTfR-mmh, 25 C
T2 construct: range 89-760; also called mfTfR-mmh; mfTFR-mmh
T2 sequence (chain, as listed by the source): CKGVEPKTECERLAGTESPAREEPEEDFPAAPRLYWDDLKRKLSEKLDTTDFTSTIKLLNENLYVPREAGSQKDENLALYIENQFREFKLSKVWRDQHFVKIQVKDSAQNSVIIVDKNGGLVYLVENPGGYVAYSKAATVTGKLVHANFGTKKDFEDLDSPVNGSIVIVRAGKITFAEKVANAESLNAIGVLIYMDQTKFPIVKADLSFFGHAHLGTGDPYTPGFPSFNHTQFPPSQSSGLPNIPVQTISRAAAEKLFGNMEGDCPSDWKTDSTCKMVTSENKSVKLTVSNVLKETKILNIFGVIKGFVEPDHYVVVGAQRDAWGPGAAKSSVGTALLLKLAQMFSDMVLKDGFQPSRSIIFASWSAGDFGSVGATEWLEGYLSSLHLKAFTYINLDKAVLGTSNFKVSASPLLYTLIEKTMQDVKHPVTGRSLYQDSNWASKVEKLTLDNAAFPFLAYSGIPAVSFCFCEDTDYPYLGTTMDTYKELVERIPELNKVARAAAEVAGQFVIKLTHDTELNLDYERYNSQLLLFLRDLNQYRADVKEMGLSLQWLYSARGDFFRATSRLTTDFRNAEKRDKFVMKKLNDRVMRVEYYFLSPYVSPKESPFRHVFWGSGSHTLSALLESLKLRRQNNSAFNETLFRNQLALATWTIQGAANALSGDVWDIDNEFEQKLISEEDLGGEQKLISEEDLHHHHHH
Procedure: as §1, §2

[3] = biological target: T3, Hmm-hTFRC (REGN2431), monomeric human transferrin receptor ectodomain with N-terminal hexahistidine-myc-myc … (human, UniProt P02786 89-760); assay: blocking ELISA, supernatant; Hmm-hTFRC binding to immobilized human holo-Tf
T3 construct: also called hmm.hTfR(C89-F763); His-myc-myc-hTFRC ecto
T3 sequence (P02786 other isoform, or with tags, fused parts or gaps): as the sequence (P02786 other isoform, or with tags, fused parts or gaps) above
Procedure: In the blocking assay, the anti-human Transferrin goat IgG polyclonal antibody (anti-hTf pAb) was passively absorbed at a concentration of 2 micrograms/mL in PBS on a 96-well microtiter plate overnight at 4° C. […] To the same plate, human holo-Tf was then added at a concentration of 1 micrograms/mL in PBS+0.5% BSA for 2 hours at room temperature. […] After a 1-hour incubation, the mixtures were transferred to the human holo-Tf microtiter plates. […] The plates were developed using TMB substrate solution according to the manufacturer's recommended procedure and absorbance at 450 nm was measured on a Victor™ Multilabel Plate Reader.
The ability of the anti-TfR antibody to block human TFRC binding to human holo-Tf was evaluated using an ELISA-based blocking assay.

Binder | 100 nM Ag Bound (RU) [1] | Kd [1] | koff [1] | kon [1] | t½ [1] | 100 nM Ag Bound (RU) [2] | Kd [2] | koff [2] | kon [2] | t½ [2] | % Blocking [3]
B1 | 1150 RU | 3.11 nM | 0.000417 s⁻¹ | 134000 M⁻¹ s⁻¹ | 27.7 min | 254 RU | 17.7 nM | 0.00168 s⁻¹ | 95100 M⁻¹ s⁻¹ | 6.9 min | –
B2 | 854 RU | 1.78 nM | 0.000168 s⁻¹ | 94200 M⁻¹ s⁻¹ | 68.8 min | 399 RU | 15 nM | 0.00118 s⁻¹ | 79000 M⁻¹ s⁻¹ | 9.8 min | –
B3 | 946 RU | 0.935 nM | 0.000122 s⁻¹ | 131000 M⁻¹ s⁻¹ | 95 min | 437 RU | 9.68 nM | 0.000735 s⁻¹ | 75900 M⁻¹ s⁻¹ | 15.7 min | –
B4 | 895 RU | 1.62 nM | 0.000171 s⁻¹ | 105000 M⁻¹ s⁻¹ | 67.6 min | 702 RU | 3.36 nM | 0.000333 s⁻¹ | 99200 M⁻¹ s⁻¹ | 34.7 min | –
B5 | 823 RU | 0.494 nM | 4.99e-05 s⁻¹ | 101000 M⁻¹ s⁻¹ | 232 min | 261 RU | 18.2 nM | 0.000962 s⁻¹ | 52900 M⁻¹ s⁻¹ | 12 min | –
B6 | 725 RU | 0.215 nM | 1.76e-05 s⁻¹ | 83700 M⁻¹ s⁻¹ | 657 min | 87 RU | 15.5 nM | 0.00157 s⁻¹ | 101000 M⁻¹ s⁻¹ | 7.3 min | –
B7 | – | – | – | – | – | – | – | – | – | – | 44%
B8 | – | – | – | – | – | – | – | – | – | – | 23%
B9 | – | – | – | – | – | – | – | – | – | – | 45%
B10 | – | – | – | – | – | – | – | – | – | – | 10%
B11 | – | – | – | – | – | – | – | – | – | – | 10%
B12 | – | – | – | – | – | – | – | – | – | – | 0%
B13 | – | – | – | – | – | – | – | – | – | – | 5%
B14 | – | – | – | – | – | – | – | – | – | – | 10%
B15 | – | – | – | – | – | – | – | – | – | – | 45%
B16 | – | – | – | – | – | – | – | – | – | – | 27%
B17 | – | – | – | – | – | – | – | – | – | – | 37%
